Laboratory results from PMC4072727, “Selection and Characterization of a DNA Aptamer That Can Discriminate between cJun/cJun and cJun/cFos”.

Tests used:
[1] = molecular target: T1, cJun (cJun/cJun homodimer) (UniProt P05412 1-331, C269S); experiment: EMSA; 0.4-6.5 nM; low or sub-nanomolar; EMSA: 100 mM KCl, 4 mM MgCl2, 20 mM Tris pH 7.9, 20 mM HEPES pH 7.9, 10% glycerol, 0.1 mM DTT, 60 ug/ml BSA, 0.06% NP-40, 50 ng poly(dI-dC), on ice; 50 pM 32P-D; details: protein: recombinant; chain copies: 2; label: 5'-FAM or 32P
[2] = molecular target: T2, cJun (cJun/cJun homodimer);cFos (in cJun/cFos heterodimer) (;, UniProt P05412;P01100 1-331;1-380, C269S|C154S); experiment: EMSA; 0.4-6.5 nM protein; EMSA: 100 mM KCl, 4 mM MgCl2, 20 mM Tris pH 7.9, 20 mM HEPES pH 7.9, 10% glycerol, 0.1 mM DTT, 60 ug/ml BSA, 0.06% NP-40, 50 ng poly(dI-dC), on ice; 50 pM 32P-D; details: protein: recombinant;recombinant; tags: ;6His; copies: 1;1; label: 5'-FAM or 32P
[3] = molecular target: T1, cJun (cJun/cJun homodimer); experiment: DNase I footprinting; broad protection; EMSA: 100 mM KCl, 4 mM MgCl2, 20 mM Tris pH 7.9, 20 mM HEPES pH 7.9, 10% glycerol, 0.1 mM DTT, 60 ug/ml BSA, 0.06% NP-40, 50 ng poly(dI-dC), on ice; 50 pM 32P-D; details: protein: recombinant; chain copies: 2; label: 32P; three stem-loops, nt 13-68
[4] = molecular target: T2, cJun (cJun/cJun homodimer);cFos (in …); experiment: EMSA; higher affinity than cJun/cJun; EMSA: 100 mM KCl, 4 mM MgCl2, 20 mM Tris pH 7.9, 20 mM HEPES pH 7.9, 10% glycerol, 0.1 mM DTT, 60 ug/ml BSA, 0.06% NP-40, 50 ng poly(dI-dC), on ice; 50 pM 32P-D; details: protein: recombinant;recombinant; tags: ;6His; copies: 1;1; label: 32P or 5'-Cy5; blunt
[5] = molecular target: T1, cJun (cJun/cJun homodimer); experiment: EMSA; EMSA: 100 mM KCl, 4 mM MgCl2, 20 mM Tris pH 7.9, 20 mM HEPES pH 7.9, 10% glycerol, 0.1 mM DTT, 60 ug/ml BSA, 0.06% NP-40, 50 ng poly(dI-dC), on ice; 50 pM 32P-D; details: protein: recombinant, chain copies: 2
[6] = molecular target: T1, cJun (cJun/cJun homodimer); experiment: competition; vs Cy5-labeled AP-1 DNA; EMSA: 100 mM KCl, 4 mM MgCl2, 20 mM Tris pH 7.9, 20 mM HEPES pH 7.9, 10% glycerol, 0.1 mM DTT, 60 ug/ml BSA, 0.06% NP-40, 50 ng poly(dI-dC), on ice; 50 pM 32P-D; details: protein: recombinant; chain copies: 2; hairpin

| Binder | binding result [1] | binding result [2] | also measured |
| --- | --- | --- | --- |
| aptamer-1 (structured_DNA) DNA: GGGAGATCACTTACGGCACCAGTCGTCGTTACTGCATTGCTCTATGGAGTATAAGCCCTGCGACAGGGCTCGGAACC | binds | no binding | – |
| aptamer-19 (structured_DNA) DNA: GGGAGATCACTTACGGCACCGTATAGTCGTACATGAACGAGTGTGAGTGTTAAGCCTTTGGCGACAGGGCTCGGAACC | – | – | binding result [3]: binds |
| AP-1 DNA (dsDNA) DNA 1: AGGTCGTGACTCAGCGG DNA 2: CCGCTGAGTCACGACCT | – | – | binding result [4]: binds; Kd ([5]; label: 32P or 5'-Cy5, blunt): ~15 nM |
| aptamer-27 (structured_DNA) DNA: GGGAGATCACTTACGGCACCAACGTCTCGTTGGTCGTTCCAGCGTTCTAGATGGATTCAGGCGACAGGGCTCGGAACC | binds | no binding | – |
| aptamer-19(12-74) (structured_DNA) DNA: TACGGCACCGTATAGTCGTACATGAACGAGTGTGAGTGTTAAGCCTTTGGCGACAGGGCTCGG | – | – | Kd ([5]; label: 32P, three stem-loops, nt 13-68): 0.5 nM |
| GTCCAAATCTCAGAAGAGACACACTCTTCTGAGATTTGGAC (structured_DNA) [mutant AP-1 decoy (hairpin)] | – | – | binding result [6]: no binding |
| GTCCATGACTCAGAAGAGACACACTCTTCTGAGTCATGGAC (structured_DNA) [AP-1 DNA decoy (hairpin)] | – | – | binding result [6]: binds |
| aptamer-16 (structured_DNA) DNA: GGGAGATCACTTACGGCACCCGGAGGGTCGTTACCCACTGTTTGTTGGTATAAAGCCTGGCGACAGGGCTCGGAACC | binds | no binding | – |
